Reference: US20250376498A1, “FUSION PROTEINS COMPRISING AN IMPROVED GLP-1 RECEPTOR AGONIST AND USES THEREOF” (Guangzhou Innogen Pharmaceutical Group Co., Ltd., priority 2022, published 2025)
Several values for one entry are separate records, joined by “and”; a condition that tells them apart may be missing. Equal entries are not always repeated.

Key:
[1] = system: obese rhesus monkeys; test: Obese rhesus monkeys, body weight; format: in vivo; conditions: for body weight decrease compared to baseline: at D28
Source text: The obese rhesus monkeys used in this study were sourced from Sichuan Primate Biotechnology Co., Ltd. Fifteen male obese rhesus monkeys, aged 8-21 years (equivalent to 30-60 years in humans), with a body weight of 9.25-15.70 kg, fasting plasma glucose (FPG) levels between 5.50-8.58 mmol/L, and HbA1c levels between 4.5-5.0%, were selected. These monkeys were within the first year of disease onset and had not received any medication. Their liver and kidney functions were normal. The animals were stratified based on FPG levels and randomly assigned to different groups. The selected animals underwent an intravenous glucose tolerance test (IVGTT) to measure blood glucose and insulin levels before the administration of the test compounds. The experimental groups included a placebo group and two YN-011 treatment groups: YN-011 50 μg/kg and YN-011 25 μg/kg, with 5 animals in each group. The treatments were administered via subcutaneous injections (SC) once a week for 4 consecutive weeks, specifically on Day 0 (DO), Day 7 (D7), Day 14 (D14), and Day 21 (D21).

[2] = Determination of oxidation levels by LC-MS/MS; format: physicochemical
Protocol: Following the protein oxidation measurement method described in Example 2 or by referring to Bettinger et al., the oxidation levels were determined. It was observed that the GLP-1 fusion protein YN-011 of the present invention was not oxidized at position W31, whereas the oxidation level of […] at the same position exceeded 5%. The oxidation occurred at the location indicated by the rectangular box in the structure of W31.

[3] = system: NASH Rhesus monkeys; test: NASH Rhesus monkeys, MRI-PDFF quantitative analysis of hepatic steatosis; format: in vivo; conditions: for percentage reduction of MRI-PDFF liver fat compared to baseline: end of the treatment; for Change rate (%) of liver lipid content: (current - baseline)/baseline
Source text: The GE 3.0T MRI scanner (750W3T MRI, GE Healthcare) was used for liver imaging in this study. The IDEAL-IQ sequence was employed, which combines the IDEAL (Iterative Decomposition of water and fat with Echo Asymmetry and Least-squares estimation) technique with fast three-dimensional multi-echo imaging. This technique includes multi-echo water-fat separation, region-growing algorithm, as well as various imaging methods for tissue fat quantification and R2* relaxation rate. Six contrast images, including in-phase, opposed-phase, water-only, fat-only, fat fraction maps, and R2* maps, were acquired through a single breath-hold scan by collecting signals from six different echo time (TE) values. The images were reconstructed using computer algorithms to obtain the aforementioned contrast images. The IDEAL-IQ hybrid water-fat separation algorithm consisted of two steps. The first step involved complex domain reconstruction to obtain water and fat images, as well as the T2* map. The second step generated an additional set of estimated water and fat images. These two sets of images were then combined using a hybrid algorithm to generate the final water and fat images.
Prior to conducting the experiment, a Phantom test was performed. Five standard fat solutions with known fat content were prepared by modifying the body phantom preparation method used by Clare P. et al.. Pure water was used as 0% fat. Sodium dodecyl sulfate (60 mmol) was dissolved in 1 L of deionized water, heated to 50° C., and then 40 g of gelatin was added and mixed thoroughly. […] of the aforementioned solution, respectively, to prepare solutions with fat contents of 0%, 2.5%, 5%, 10%, 20%, and 100%. These solutions were filled into six 100 ml EP tubes for subsequent scanning procedures.
Phantom validation experiments were performed before each scan. All animals underwent a baseline scan and one additional scan after the completion of the drug administration, totaling two scans. The anesthesia procedure was as follows: intramuscular injection of 10 mg/kg ketamine hydrochloride, endotracheal intubation, and maintenance of anesthesia with isoflurane and oxygen using a ventilator. During the scanning process, veterinary monitoring of electrocardiogramad oxygenation, respiratory rate, etc., was performed, and veterinary supervision was provided until the animals fully recovered consciousness and resumed spontaneous respiration.
Image Post-processing and Analysis: The collected and stored Hepatic steatosis MRI images of Rhesus monkeys were analyzed using the 750W 3T MRI workstation. The liver MRI images were selected by choosing the planes with the maximum exposure of the right hepatic lobe area (layers 1-3), avoiding large blood vessels, bile ducts, and gallbladder to prevent volume effects. Regions of interest (ROI) were selected, with each ROI having an area of 90-110 mm^2. Hepatic steatosis was defined as MRI-PDFF % (Magnetic Resonance Imaging Proton Density Fat Fraction)>6% (consistent with clinical standards).
Fifteen Rhesus monkeys were divided into 3 groups, with 5 monkeys in each group. They received subcutaneous injections of 0 (solvent control, placebo control group), 0.050, or 0.150 mg/kg of YN-011 once a week for 13 weeks (QW). The 0.150 mg/kg YN-011 group received adaptive dosing (0.1 mg/kg for the first dose, followed by 0.150 mg/kg for the remaining 12 doses).

[4] = system: INS-1 cells; test: Assessment of YN-011 activity by inducing cAMP levels in INS-1 cells; format: cell-based; conditions: YN-011 120 nM
Protocol: Natural GLP-1 stimulates insulin secretion from beta cells in a glucose-dependent manner. […] INS-1 cells were serum-starved and glucose-starved, then treated with different amounts of purified YN-011 in the presence of 0, 5, or 20 mM glucose as indicated.
Furthermore, the blank control (SF1) and the two samples with the […] hydroxylation levels (SF4 and SF5) were tested for the biological activity of YN-011 using the method described in Example 1. […] Thus, higher hydroxylation levels tend to increase the biological activity.

B1: YN-011: GLP-1 fusion protein of SEQ ID NO: 7: GLP-1 (A8G, G22E, R36G), linker peptide and IgG2/Fc domain (C222S, A330S, P331S) (protein)
chain: HGEGTFTSDVSSYLEEQAAKEFIAWLVKGGGSSGAPPPSGGGGSERKSCVECPPCPAPPVAGPSVFLFPPKPKDTLMISRTPEVTCVVVDVSHEDPEVQFNWYVDGVEVHNAKTKPREEQFNSTFRVVSVLTVVHQDWLNGKEYKCKVSNKGLPSSIEKTISKTKGQPREPQVYTLPPSREEMTKNQVSLTCLVKGFYPSDIAVEWESNGQPENNYKTTPPMLDSDGSFFLYSKLTVDKSRWQQGNVFSCSVMHEALHNHYTQKSLSLSPG
Question: For B1, which “BW” value ([1]; 25 μg/kg SC once a week, D 1 baseline value (before administration)) is on record?
Answer: The value was 12.72 kg.

Question: What about the “BW” value ([1]; 25 μg/kg SC once a week, D 7) of the same molecule?
Answer: The value was 12.39 kg.

Question: And the “BW” value ([1]; 25 μg/kg SC once a week, D 14)?
Answer: The value was 12.16 kg.

Question: What about the “BW” value ([1]; 25 μg/kg SC once a week, D 21) of the same molecule?
Answer: Its value is 12.06 kg.

Question: What about the “BW” value ([1]; 25 μg/kg SC once a week, D 28) of the same molecule?
Answer: Its value is 11.84 kg.

Question: What about the “BW” value ([1]; 25 μg/kg SC once a week, D 35) of the same molecule?
Answer: The value was 12.05 kg.

Question: And the “BW” value ([1]; 25 μg/kg SC once a week, D 42)?
Answer: Its value is 12.03 kg.

Question: What about the “BW compared to the placebo group” value ([1]; 25 μg/kg, D14 and D21 (P<0.05)) of the same molecule?
Answer: Its value is “significantly decreased”.

Question: And the “body weight decrease compared to baseline” value ([1]; 25 μg/kg)?
Answer: The value was 6.17%.

Question: And the “BW” value ([1]; 50 μg/kg SC once a week, D 1 baseline value (before administration))?
Answer: Its value is 10.29 kg.

Question: And the “BW” value ([1]; 50 μg/kg SC once a week, D 7)?
Answer: The value was 9.85 kg.

Question: And the “BW” value ([1]; 50 μg/kg SC once a week, D 14)?
Answer: Its value is 9.64 kg.

Question: What about the “BW” value ([1]; 50 μg/kg SC once a week, D 21) of the same molecule?
Answer: Its value is 9.63 kg.

Question: And the “BW” value ([1]; 50 μg/kg SC once a week, D 28)?
Answer: The value was 9.52 kg.

Question: And the “BW” value ([1]; 50 μg/kg SC once a week, D 35)?
Answer: Its value is 9.79 kg.

Question: What about the “BW” value ([1]; 50 μg/kg SC once a week, D 42) of the same molecule?
Answer: The value was 9.81 kg.

Question: What about the “body weight decrease compared to baseline” value ([1]; 50 μg/kg) of the same molecule?
Answer: Its value is 7.32%.

Question: What about the “BW compared to the placebo group” value ([1]; 50 μg/kg, from D7 to D28 (P<0.05 or P<0.01)) of the same molecule?
Answer: Its value is “significantly or extremely significantly decreased”.

Question: What about the “oxidation level at position W31” value [2] of the same molecule?
Answer: The value was “not oxidized”.

Question: What about the “percentage reduction of MRI-PDFF liver fat compared to baseline” value ([3]; 50 μg/kg) of the same molecule?
Answer: Its value is 43.8%.

Question: What about the “Average ROI Baseline (%) (liver lipid content, MRI-PDFF)” value ([3]; 0.05 mg/kg group, 0.05 mg/kg) of the same molecule?
Answer: Its value is 9.0%±0.9% and 9.0 ± 0.9%.

Question: And the “Mean ROI at day 80 of dosing (%) (liver lipid content, MRI-PDFF)” value ([3]; 0.05 mg/kg sc QW, 0.05 mg/kg)?
Answer: The value was 5.0%±0.2% and 5.0 ± 0.2** %.

Question: And the “Change rate (%) of liver lipid content” value ([3]; 0.05 mg/kg sc QW)?
Answer: Its value is −43.8 ± 7.4 %.

Question: And the “Average ROI Baseline (%) (liver lipid content, MRI-PDFF)” value ([3]; 0.15 mg/kg group, 0.15 mg/kg)?
Answer: Its value is 9.4%±1.5% and 9.4 ± 1.5%.

Question: And the “Mean ROI at day 80 of dosing (%) (liver lipid content, MRI-PDFF)” value ([3]; 0.15 mg/kg sc QW, 0.15 mg/kg)?
Answer: Its value is 5.6%±1.5% and 5.6 ± 1.5** %.

Question: And the “Change rate (%) of liver lipid content” value ([3]; 0.15 mg/kg sc QW)?
Answer: The value was −39.7 ± 14.2 %.

Question: And the “percentage reduction of MRI-PDFF liver fat compared to baseline” value ([3]; 150 μg/kg)?
Answer: The value was 39.7%.

Question: And the “decrease of liver lipid content compared to the placebo control group” value ([3]; after 13 weeks of weekly treatment)?
Answer: The value was “approximately 40%”.

Question: And the cAMP levels ([4]; 5 mM glucose, comparable to exendin-4)?
Answer: The cAMP levels was “significantly increased”.

Question: And the cAMP levels ([4]; absence of glucose)?
Answer: Its cAMP levels is “maintained basal levels of cAMP”.
